For this data set, the system named is T1, PhoB (Bacteroides fragilis YCH46), ORF:3d02aa67.
T1 sequence: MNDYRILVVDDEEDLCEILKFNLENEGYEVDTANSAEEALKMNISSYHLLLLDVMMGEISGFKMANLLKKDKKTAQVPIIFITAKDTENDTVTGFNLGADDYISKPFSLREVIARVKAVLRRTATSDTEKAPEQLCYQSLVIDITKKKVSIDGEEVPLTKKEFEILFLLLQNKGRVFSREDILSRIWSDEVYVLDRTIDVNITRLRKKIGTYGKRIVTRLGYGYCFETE
The experiment in a line: EMSA. Particulars: EMSA: 50 mM Tris-HCl pH 7.5, 50 mM KCl, 10 mM MgCl2, 0.5 mM EDTA, 30 min at 25 C; 5% polyacrylamide gel. PS B and PS E promoter fragments (S55/S56, S57/S58 …). Background: Mobility shift assays separate free from complexed probe on a gel.

For the sequence “GGAATGGCTGGTAATCAAGTGCCTTGACTGCATCTGCATTGGCTTCTCCGTATTGAAATGATGGAGCAGCATAAGTGACTTGGCATTGAACTCCTGTAACATAATCCGGATTTTCTCCATTAAGATTATATTTAAGAGGTACGTTGGACGATGTGAAGATTAACGACGTCAACGAAGTAGTACCTGTTCCACCGAAAATATTGCCGGTAGCATAAGGTACTTCTATATCGTCGTTATCCGATGCCACTTTGATAAACTTAATATCGATGCGTGATACAATGCGTTCCAGA (double strand) [BF3397 internal fragment]”, the binding entry is given as “no binding”.

These data come from PMC3547664.
